From paper PMC3777900

Target: Mouse myosin 5a HMM (m5-HMM), heavy chain (mouse) (UniProt Q99104)
Assay: photo-bleaching step counting by TIRF microscopy; single molecules bound on a cover glass surface after exchange with Alexa488-CaM at 5:1 (Alexa488-CaM: myosin); step-wise photo-bleaching counted

Sequence of UniProt Q99104 (Q99104 whole entry): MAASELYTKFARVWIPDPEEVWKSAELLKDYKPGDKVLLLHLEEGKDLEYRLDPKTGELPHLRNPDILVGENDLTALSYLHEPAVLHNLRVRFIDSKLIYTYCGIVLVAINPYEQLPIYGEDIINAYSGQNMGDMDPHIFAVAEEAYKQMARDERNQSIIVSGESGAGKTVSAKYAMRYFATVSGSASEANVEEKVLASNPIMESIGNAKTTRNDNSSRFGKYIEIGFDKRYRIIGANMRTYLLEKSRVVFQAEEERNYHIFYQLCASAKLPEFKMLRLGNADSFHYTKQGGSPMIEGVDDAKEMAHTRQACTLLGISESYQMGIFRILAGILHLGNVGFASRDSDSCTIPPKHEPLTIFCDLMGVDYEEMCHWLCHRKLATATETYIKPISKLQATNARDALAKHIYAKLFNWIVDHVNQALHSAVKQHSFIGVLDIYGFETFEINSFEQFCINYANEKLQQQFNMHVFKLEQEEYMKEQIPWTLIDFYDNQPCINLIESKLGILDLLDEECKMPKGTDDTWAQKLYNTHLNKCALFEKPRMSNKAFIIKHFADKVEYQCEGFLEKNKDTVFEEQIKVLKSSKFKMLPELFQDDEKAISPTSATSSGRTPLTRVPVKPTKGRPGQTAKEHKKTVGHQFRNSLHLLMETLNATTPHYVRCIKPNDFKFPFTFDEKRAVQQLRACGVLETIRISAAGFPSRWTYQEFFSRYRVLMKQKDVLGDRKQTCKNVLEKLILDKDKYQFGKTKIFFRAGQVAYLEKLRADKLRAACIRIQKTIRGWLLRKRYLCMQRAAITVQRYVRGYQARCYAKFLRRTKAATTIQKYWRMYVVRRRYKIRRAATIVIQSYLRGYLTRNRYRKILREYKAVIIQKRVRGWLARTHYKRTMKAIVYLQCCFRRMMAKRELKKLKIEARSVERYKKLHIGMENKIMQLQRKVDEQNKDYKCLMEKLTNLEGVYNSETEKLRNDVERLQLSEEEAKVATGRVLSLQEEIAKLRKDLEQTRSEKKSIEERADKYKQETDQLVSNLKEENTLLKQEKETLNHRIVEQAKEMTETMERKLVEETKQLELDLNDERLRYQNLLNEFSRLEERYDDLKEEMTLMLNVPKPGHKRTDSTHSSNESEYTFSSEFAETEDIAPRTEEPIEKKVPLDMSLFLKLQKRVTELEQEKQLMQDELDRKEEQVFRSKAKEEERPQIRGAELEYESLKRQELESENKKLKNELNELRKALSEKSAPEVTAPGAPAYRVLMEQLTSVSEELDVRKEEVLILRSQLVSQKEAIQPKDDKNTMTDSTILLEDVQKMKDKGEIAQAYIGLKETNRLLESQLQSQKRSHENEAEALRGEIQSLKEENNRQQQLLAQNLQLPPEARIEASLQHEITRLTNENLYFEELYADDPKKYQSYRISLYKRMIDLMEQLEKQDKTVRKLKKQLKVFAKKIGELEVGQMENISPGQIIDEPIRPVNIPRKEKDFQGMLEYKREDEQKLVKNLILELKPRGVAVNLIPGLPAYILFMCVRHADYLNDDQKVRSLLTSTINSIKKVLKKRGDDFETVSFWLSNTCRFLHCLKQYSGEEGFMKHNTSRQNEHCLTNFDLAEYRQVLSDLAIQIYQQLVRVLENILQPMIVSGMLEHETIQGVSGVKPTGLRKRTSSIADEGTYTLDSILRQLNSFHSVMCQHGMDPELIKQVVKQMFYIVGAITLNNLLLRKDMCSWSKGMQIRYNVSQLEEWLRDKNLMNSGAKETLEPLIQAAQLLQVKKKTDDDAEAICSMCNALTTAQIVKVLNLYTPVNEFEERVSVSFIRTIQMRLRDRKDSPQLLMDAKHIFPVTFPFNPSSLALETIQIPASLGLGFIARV

| Substance | Alexa488-CaM molecules exchanged into one myosin molecule | stoichiometry N |
| --- | --- | --- |
| Alexa Fluor 488-labeled bovine calmodulin (from UniProt P62157 1-149) (natural protein) | 2 | – |
| Mouse myosin 5a HMM (m5-HMM), heavy chain (from UniProt Q99104 1-1853) (domain or fragment) | – | 2 |
